Laboratory results published in the supplement of paper PMC12783771.
± gives the standard deviation of the averaged measurements.

B1: library; numbered along this chain (parent)
chain: MNIQIGELAKRTACPVVTIRFYEQEGLLPPPGRSRGNFRLYGEEHVERLQFIRHCRSLDMPLSDVRTLLSYRKRPDQDCGEVNMLLDEHIRQVESRIGALLELKHHLVELREACSGARPAQSCGILQGLSDCVCDTRGTTAHPSD

What was measured:
[1] = variants of: B1; assay: sfGFP reporter fluorescence (15 h) (µM FITC); higher = higher leak; conditions: library round: Round 0; ligand: none
How it was run: (§1)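 Linear PbrR templates were made by PCR, normalized to 5 nM with an Echo, and expressed in BL21 Star (DE3) PANOx-SP extract with the pPbrR-sfGFP reporter plasmid and 30 μg/mL GamS. Echo-assembled 1 μL reactions held 1 µM lead chloride, 30 µM zinc acetate or no metal and were incubated 15 hr at 30 °C. Endpoint sfGFP fluorescence was read on a Synergy Neo2 and expressed as µM FITC using standard curves. Up to three biological replicates were run.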

[2] = variants of: B1; assay: sfGFP reporter fluorescence (15 h) (µM FITC); higher = stronger transcriptional activation; conditions: library round: Round 0
How it was run: as §1

Variant | sfGFP reporter fluorescence [1] | sfGFP reporter fluorescence ([2]; ligand: 1 µM Pb) | sfGFP reporter fluorescence ([2]; ligand: 30 µM Zn)
L62I | 0.05992 ± 0.00026 | 0.0883 ± 0.0062 | 0.88 ± 0.14
L62W | 0.0616 ± 0.0042 | 0.0603 ± 0.0034 | 0.0665 ± 0.0013
L62Y | 0.0599 ± 0.0023 | 0.0623 ± 0.00052 | 0.0748 ± 0.0057
L62V | 0.0621 ± 0.0018 | 0.08008 ± 0.00078 | 0.396 ± 0.0088
L62R | 0.06377 ± 0.00052 | 0.0643 ± 0.0013 | 0.0704 ± 0.0047
L62F | 0.0599 ± 0.0023 | 0.0652 ± 0.0015 | 0.168 ± 0.0039
L62G | 0.0586 ± 0.001 | 0.0579 ± 0.0015 | 0.0614 ± 0.00078
M60L P61N G128M | 0.822 ± 0.13 | 1.91 ± 0.38 | 3.32 ± 0.64
M60L P61N G128I | 0.436 ± 0.043 | 1.55 ± 0.032 | 3.7563 ± 0.0021
P61N L107C G128M | 3.31 ± 0.13 | 4.37 ± 0.48 | 5.17 ± 0.11
P61N L107C G128I | 1.6 ± 0.35 | 2.91 ± 0.12 | 3.99 ± 0.4
M60L D64K K104V L107C | 3.73 ± 0.15 | 4.15 ± 0.39 | 3.44 ± 0.57
M60L D64K | 0.916 ± 0.074 | 1.99 ± 0.24 | 4.629 ± 0.03
M60L P61N D64K K104V G128I | 0.345 ± 0.029 | 0.915 ± 0.075 | 2.39 ± 0.063
M60L D64K K104V G128I | 2.23 ± 0.091 | 3.3 ± 0.69 | 4.17 ± 0.28
M60L D64K K104V G128M | 3.37 ± 0.19 | 4.36 ± 0.31 | 3.8 ± 0.24
M60L P61N D64K K104V | 0.366 ± 0.0044 | 1.11 ± 0.035 | 3.03 ± 0.15
P61N D64K K104V G128I | 0.32 ± 0.048 | 0.989 ± 0.27 | 2.48 ± 0.29
P61N D64K K104V G128M | 0.739 ± 0.021 | 1.592 ± 0.0036 | 3.375 ± 0.019
M60L P61N D64K L107C | 3.0399 ± 0.0023 | 4.3 ± 0.33 | 4.24 ± 0.28
P61N G128M | 0.481 ± 0.039 | 1.59 ± 0.34 | 4.72 ± 0.4
P61N G128I | 0.1886 ± 0.0018 | 0.682 ± 0.092 | 3.06 ± 0.22
P61N D64K L107C | 2.69 ± 0.12 | 3.57 ± 0.046 | 3.69 ± 0.12

Variant | sfGFP reporter fluorescence [1] | sfGFP reporter fluorescence ([2]; ligand: 1 µM Pb) | sfGFP reporter fluorescence ([2]; ligand: 30 µM Zn)
M60L P61N | 0.25 ± 0.0062 | 1.01 ± 0.48 | 3.5 ± 0.044
D64K L107C | 3.83 ± 0.36 | 3.75 ± 0.15 | 4.11 ± 0.21
M60L P61N D64K | 0.611 ± 0.025 | 1.74 ± 0.19 | 3.74 ± 0.11
M60L K104V | 0.255 ± 0.0057 | 1.1 ± 0.067 | 3.17 ± 0.1
M60L D64K G128I | 2.06 ± 0.074 | 3.47 ± 0.32 | 4.32 ± 0.22
M60L D64K G128M | 3.44 ± 0.06 | 4.33 ± 0.25 | 4.46 ± 0.12
P61N D64K | 0.232 ± 0.0052 | 0.762 ± 0.12 | 3.05 ± 0.076
P61D | 0.0729 | 0.123 ± 0.0044 | 0.709 ± 0.02
P61F | 0.0608 ± 0.0031 | 0.0651 ± 0.0023 | 0.09382 ± 0.00052
P61S | 0.0755 ± 0.00052 | 0.146 ± 0.0036 | 2.15 ± 0.052
P61G | 0.0819 ± 0.0029 | 0.2936 ± 0.0021 | 2.2 ± 0.053
P61Q | 0.0755 ± 0.0015 | 0.148 ± 0.0065 | 1.07 ± 0.024
P61T | 0.0865 ± 0.001 | 0.211 ± 0.006 | 1.94 ± 0.03
P61R | 0.0715 ± 0.0031 | 0.1231 ± 0.00052 | 1.42 ± 0.021
P61W | 0.061 ± 0.0039 | 0.06395 ± 0.00026 | 0.104 ± 0.0018
P61E | 0.0693 | 0.0991 ± 0.0049 | 0.338 ± 0.042
P61C | 0.0755 ± 0.001 | 0.193 ± 0.0083 | 1.78 ± 0.031
P61Y | 0.0638 ± 0.0015 | 0.0757 ± 0.0018 | 0.148 ± 0.0023
P61I | 0.0553 ± 0.0067 | 0.06414 ± 0.00052 | 0.112 ± 0.00026
P61V | 0.0651 ± 0.0013 | 0.09 ± 0.0029 | 0.302
P61K | 0.068 ± 0.00078 | 0.107 ± 0.0031 | 1.6 ± 0.1
P61L | 0.0638 ± 0.0026 | 0.0823 ± 0.0039 | 0.191 ± 0.0057
P61A | 0.0665 ± 0.00078 | 0.108 | 1.22 ± 0.092

Variant | sfGFP reporter fluorescence [1] | sfGFP reporter fluorescence ([2]; ligand: 1 µM Pb) | sfGFP reporter fluorescence ([2]; ligand: 30 µM Zn)
P61M | 0.0682 ± 0.001 | 0.1424 ± 0.0013 | 0.714 ± 0.039
P61H | 0.0658 ± 0.00078 | 0.117 ± 0.0021 | 0.797 ± 0.015
P61N | 0.07825 ± 0.00026 | 0.13 ± 0.078 | 1.74 ± 0.049
M60L P61N L107C G128I | 1.87 ± 0.42 | 3.58 ± 0.081 | 4.97 ± 0.23
M60L P61N L107C G128M | 3.38 ± 0.74 | 4.14 ± 0.57 | 5.5 ± 0.2
D64K K104V L107C | 2.05 ± 0.034 | 4.21 ± 0.2 | 4.1 ± 0.055
P61N K104V L107C | 0.283 ± 0.021 | 1.28 ± 0.11 | 2.54 ± 0.079
R66A | 0.0627 ± 0.0015 | 0.0751 ± 0.0047 | 0.616 ± 0.13
M60F | 1.94 ± 0.16 | 2.94 ± 0.1 | 2.92 ± 0.028
M60L | 0.1063 ± 0.00052 | 0.295 ± 0.035 | 2.8 ± 0.031
M60I | 0.12 ± 0.0029 | 0.319 ± 0.03 | 2.58 ± 0.063
M60Q | 0.0603 ± 0.00078 | 0.0588 ± 0.0018 | 0.0614 ± 0.0013
M60R | 0.0614 ± 0.0034 | 0.0612 ± 0.001 | 0.0619 ± 0.0015
M60P | 0.0605 | 0.05974 ± 0.00052 | 0.05516 ± 0.00026
M60S | 0.0601 | 0.0608 ± 0.001 | 0.0592 ± 0.00078
M60V | 0.0715 ± 0.0015 | 0.1459 ± 0.001 | 1.05 ± 0.012
M60K | 0.0605 ± 0.001 | 0.061 ± 0.0018 | 0.0625 ± 0.0029
M60H | 0.0623 ± 0.0015 | 0.0614 ± 0.00078 | 0.0638 ± 0.0015
M60C | 0.06029 ± 0.00026 | 0.06304 ± 0.00052 | 0.06615 ± 0.00026
M60N | 0.0616 ± 0.001 | 0.0607 ± 0.0018 | 0.061 ± 0.0013
M60D | 0.0616 ± 0.001 | 0.0619 ± 0.0015 | 0.063 ± 0.0015
M60A | 0.0643 ± 0.0029 | 0.0619 ± 0.001 | 0.0713 ± 0.007
M60E | 0.107 ± 0.00052 | 0.463 ± 0.039 | 1.67 ± 0.012

Variant | sfGFP reporter fluorescence [1] | sfGFP reporter fluorescence ([2]; ligand: 1 µM Pb) | sfGFP reporter fluorescence ([2]; ligand: 30 µM Zn)
M60G | 0.0561 ± 0.0015 | 0.05772 ± 0.00026 | 0.0588 ± 0.0013
M60T | 0.0601 ± 0.001 | 0.0621 ± 0.00078 | 0.0645 ± 0.001
M60W | 0.135 ± 0.0096 | 0.384 ± 0.026 | 0.926 ± 0.01
M60Y | 0.0621 ± 0.0013 | 0.0662 ± 0.0013 | 0.12 ± 0.00078
P61N D64K K104V L107C | 0.676 ± 0.011 | 2.12 ± 0.066 | 2.74 ± 0.35
P61N K104V G128I | 0.133 ± 0.0086 | 0.341 ± 0.0067 | 1.53 ± 0.083
P61N K104V G128M | 0.395 ± 0.015 | 1.034 ± 0.006 | 3.13 ± 0.069
M60L D64K L107C G128I | 5.03 ± 0.22 | 4.57 ± 0.23 | 3.85 ± 0.9
M60L D64K L107C G128M | 5.61 ± 0.24 | 4.82 ± 0.34 | 4.67 ± 0.83
M60L P61N K104V | 0.153 ± 0.0062 | 0.413 ± 0.017 | 1.56 ± 0.039
T67A | 0.06047 ± 0.00052 | 0.0709 ± 0.0018 | 0.381 ± 0.063
D64K K104V G128I | 0.711 ± 0.092 | 1.75 ± 0.096 | 4.36 ± 0.25
D64K K104V G128M | 1.36 ± 0.059 | 2.78 ± 0.079 | 4.45 ± 0.11
P61N D64K G128M | 1.01 ± 0.069 | 2.17 ± 0.97 | 4.15 ± 0.24
P61N D64K G128I | 0.452 ± 0.022 | 1.46 ± 0.23 | 3.51 ± 0.073
D64A L68S | 0.0623 ± 0.0021 | 0.0597 ± 0.0026 | 0.0803 ± 0.0036
M60L P61N K104V L107C | 0.535 ± 0.018 | 1.66 ± 1.4 | 3.35 ± 0.1
M60L D64K L107C | 5.66 ± 0.2 | 5.25 ± 0.066 | 5.27 ± 0.24
M60L P61N D64K G128M | 1.99 ± 0.056 | 3.91 ± 0.25 | 4.405 ± 0.006
M60L P61N D64K G128I | 0.944 ± 0.037 | 3.29 ± 0.078 | 3.77 ± 0.81
